We go through 49 sequences from the supplement of paper PMC11780869.

The subject of the series is Bacillus subtilis. Kind of series: cleaved RNA product abundance (RNA/gDNA barcode ratio) relative to median wild-type variant (ratio to wild type); higher = more accumulation of the downstream cleavage product. As to conditions: cleavage site: cggR-gapA (positions -7 to +36 mutated). How it is done:
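MPRA in B. subtilis. Mutagenized RNase Y cleavage-site regions (9% mutation rate) were inserted into a barcoded reporter mRNA (truncated aprE or tetM). Cells were grown in LB at 37°C to OD600 0.3. The cleaved RNA isoform was gel-purified and its barcodes counted; the RNA:gDNA barcode ratio was normalised to the median wild-type variant, and the median over barcodes is reported per variant. The printed sequence is the variable window only; the reporter flanks are not printed.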

Setting [1] is: experiment (reporter, strain, medium): exp 4a: truncated aprE reporter, strain BJT201 with 2% xylose (RNase J1 expressed).
[2] abbreviates: experiment (reporter, strain, medium): exp 2b: truncated aprE reporter, strain BJT200.
Setting [3] is: experiment (reporter, strain, medium): exp 6: tetM reporter, strain 168.

As for “ACAGACGAAGGAGCCGCAAAAAAGTTATTAAGGGATGAATAATCCCTCAATATAAACATCTCTCACTTATTTAAA”, under setting [1], the “cleaved RNA product abundance” value came out at 0.766.

As to “ACAGACGAAGGAGCCGCAAAAAAGTTATTAAGGGATGAATAATCCCTCAATATAAAGATCTCTCACTTATTTAAA”, the “cleaved RNA product abundance” value under setting [1] was determined as 0.56.

In the case of “ACAGACGAAGGAGCCGCAAAAAAGTTATTAAGGGATGAATAATCCCTCAATATAAATAACTCTCACTTATTTAAA”, the “cleaved RNA product abundance” value under setting [1] stood at 1.13.

As for “ACAGACGAAGGAGCCGCAAAAAAGTTATTAAGGGATGAATAATCCCTCAATATAAATACCTCTCACTTATTTAAA”, under setting [1], the “cleaved RNA product abundance” value was found to be 0.493.

Consider “ACAGACGAAGGAGCCGCAAAAAAGTTATTAAGGGATGAATAATCCCTCAATATAAATATCTCTCACTTATTTAAA”, for which the “cleaved RNA product abundance” value by setting is: under setting [2], 1.06; under setting [1], 1.04; under setting [3], 1.04.

On to “ACAGACGAAGGAGCCGCAAAAAAGTTATTAAGGGATGAATAATCCCTCAATATAAATCTCTCTCACTTATTTAAA”, for which, under setting [1], the “cleaved RNA product abundance” value was 0.362.

Consider “ACAGACGAAGGAGCCGCAAAAAAGTTATTAAGGGATGAATAATCCCTCAATATAAATGTCTCTCACTTATTTAAA”, for which the “cleaved RNA product abundance” value by setting is: under setting [2], 0.243; under setting [1], 0.309.

Turning to “ACAGACGAAGGAGCCGCAAAAAAGTTATTAAGGGATGAATAATCCCTCAATATAAATTTCTCTCACTTATTTAAA”, under setting [1], the “cleaved RNA product abundance” value stood at 1.04.

Regarding “ACAGACGAAGGAGCCGCAAAAAAGTTATTAAGGGATGAATAATCCCTCAATATACATATCTCTCACTTATTTAAA”, the “cleaved RNA product abundance” value under setting [1] stood at 0.996.

As to “ACAGACGAAGGAGCCGCAAAAAAGTTATTAAGGGATGAATAATCCCTCAATATAGATATCTCTCACTTATTTAAA”, the “cleaved RNA product abundance” value by setting is: under setting [2], 0.991; under setting [1], 0.644.

For “ACAGACGAAGGAGCCGCAAAAAAGTTATTAAGGGATGAATAATCCCTCAATATATATATCTCTCACTTATTTAAA”, the “cleaved RNA product abundance” value under setting [1] was 1.08.

Take “ACAGACGAAGGAGCCGCAAAAAAGTTATTAAGGGATGAATAATCCCTCAATATGAATATCTCTCACTTATTTAAA”: the “cleaved RNA product abundance” value under setting [2] turned out to be 0.135.

In the case of “ACAGACGAAGGAGCCGCAAAAAAGTTATTAAGGGATGAATAATCCCTCAATCTAAATATCTCTCACTTATTTAAA”, the “cleaved RNA product abundance” value under setting [2] worked out at 0.137.

As to “ACAGACGAAGGAGCCGCAAAAAAGTTATTAAGGGATGAATAATCCCTCACTATAAATATCTCTCACTTATTTAAA”, the “cleaved RNA product abundance” value under setting [1] was 0.537.

“ACAGACGAAGGAGCCGCAAAAAAGTTATTAAGGGATGAATAATCCCTCAGTATAAATATCTCTCACTTATTTAAA”: the “cleaved RNA product abundance” value was determined as 0.266 under setting [2] and 0.42 under setting [1].

Consider “ACAGACGAAGGAGCCGCAAAAAAGTTATTAAGGGATGAATAATCCCTCATTATAAATATCTCTCACTTATTTAAA”, for which the “cleaved RNA product abundance” value came to 0.293 under setting [2] and 0.417 under setting [1].

Regarding “ACAGACGAAGGAGCCGCAAAAAAGTTATTAAGGGATGAATAATCCCTCCATATAAATATCTCTCACTTATTTAAA”, the “cleaved RNA product abundance” value under setting [1] was 0.348.

Take “ACAGACGAAGGAGCCGCAAAAAAGTTATTAAGGGATGAATAATCCCTCGATATAAATATCTCTCACTTATTTAAA”: the “cleaved RNA product abundance” value came out at 0.396 under setting [2] and 0.555 under setting [1].

On to “ACAGACGAAGGAGCCGCAAAAAAGTTATTAAGGGATGAATAATCCCTCTATATAAATATCTCTCACTTATTTAAA”, for which the “cleaved RNA product abundance” value under setting [1] stood at 0.613.

Consider “ACAGACGAAGGAGCCGCAAAAAAGTTATTAAGGGATGAATAATCCCTGAATATAAAGATCTCTCACTTATTTAAA”, for which the “cleaved RNA product abundance” value under setting [2] is 0.364.

On to “ACAGACGAAGGAGCCGCAAAAAAGTTATTAAGGGATGAATAATCCCTGAATATAAATATCTCTCACTTATTTAAA”, for which the “cleaved RNA product abundance” value under setting [1] came out at 0.427.

In the case of “ACAGACGAAGGAGCCGCAAAAAAGTTATTAAGGGATGAATAATCCCTTAATATAAATATCTCTCACTTATTTAAA”, the “cleaved RNA product abundance” value under setting [1] was found to be 0.394.

“ACAGACGAAGGAGCCGCAAAAAAGTTATTAAGGGATGAATAATCCGTCAATATAAATATCTCTCACTTATTTAAA”: the “cleaved RNA product abundance” value under setting [2] was determined as 0.168 and the “cleaved RNA product abundance” value under setting [1] came out at 0.242.

Regarding “ACAGACGAAGGAGCCGCAAAAAAGTTATTAAGGGATGAATAATCCTTCAATATAAATATCTCTCACTTATTTAAA”, the “cleaved RNA product abundance” value is 0.395 under setting [2] and 0.678 under setting [1].

As for “ACAGACGAAGGAGCCGCAAAAAAGTTATTAAGGGATGAATAATCTCTCAATATAAATATCTCTCACTTATTTAAA”, the “cleaved RNA product abundance” value under setting [2] worked out at 0.703, the “cleaved RNA product abundance” value under setting [1] was determined as 0.694 and the “cleaved RNA product abundance” value under setting [3] was 0.897.

For “ACAGACGAAGGAGCCGCAAAAAAGTTATTAAGGGATGAATAATTCCTCAATATAAATATCTCTCACTTATTTAAA”, the “cleaved RNA product abundance” value worked out at 0.68 under setting [2] and 0.814 under setting [1].

As for “ACAGACGAAGGAGCCGCAAAAAAGTTATTAAGGGATGAATAATTCCTCTATATAAATATCTCTCACTTATTTAAA”, the “cleaved RNA product abundance” value under setting [1] came to 0.264.

On to “ACAGACGAAGGAGCCGCAAAAAAGTTATTAAGGGATGAATACTCCCTCAATATAAATATCTCTCACTTATTTAAA”, for which the “cleaved RNA product abundance” value by setting is: under setting [2], 0.519; under setting [1], 0.58.

On to “ACAGACGAAGGAGCCGCAAAAAAGTTATTAAGGGATGAATAGTCCCTCAATATAAATATCTCTCACTTATTTAAA”, for which the “cleaved RNA product abundance” value under setting [2] was determined as 0.786 and the “cleaved RNA product abundance” value under setting [1] amounted to 0.961.

For “ACAGACGAAGGAGCCGCAAAAAAGTTATTAAGGGATGAATATTCCCTCAATATAAATATCTCTCACTTATTTAAA”, the “cleaved RNA product abundance” value under setting [2] turned out to be 0.665 and the “cleaved RNA product abundance” value under setting [1] came to 0.566.

As to “ACAGACGAAGGAGCCGCAAAAAAGTTATTAAGGGATGAATCATCCCTCAATATAAATATCTCTCACTTATTTAAA”, the “cleaved RNA product abundance” value under setting [1] came out at 1.01.

With “ACAGACGAAGGAGCCGCAAAAAAGTTATTAAGGGATGAATTATCCCTCAATATAAATATCTCTCACTTATTTAAA”, the “cleaved RNA product abundance” value under setting [1] is 0.808.

With “ACAGACGAAGGAGCCGCAAAAAAGTTATTAAGGGATGACTAATCCCTCAATATAAATATCTCTCACTTATTTAAA”, the “cleaved RNA product abundance” value reads like this: under setting [2], 0.504; under setting [1], 0.61.

Regarding “ACAGACGAAGGAGCCGCAAAAAAGTTATTAAGGGATGAGTAATCCCTCAATATAAATATCTCTCACTTATTTAAA”, the “cleaved RNA product abundance” value reads like this: under setting [2], 0.481; under setting [1], 0.415.

In the case of “ACAGACGAAGGAGCCGCAAAAAAGTTATTAAGGGATGCATAATCCCTCAATATAAATATCTCTCACTTATTTAAA”, the “cleaved RNA product abundance” value was 0.986 under setting [2] and 1.02 under setting [1].

With “ACAGACGAAGGAGCCGCAAAAAAGTTATTAAGGGATGTATAATCCCTCAATATAAATATCTCTCACTTATTTAAA”, the “cleaved RNA product abundance” value was determined as 1.06 under setting [2] and 1.09 under setting [1].

Turning to “ACAGACGAAGGAGCCGCAAAAAAGTTATTAAGGGATTAATAATCCCTCAATATAAATATCTCTCACTTATTTAAA”, the “cleaved RNA product abundance” value is 1.51 under setting [2] and 0.881 under setting [1].

Regarding “ACAGACGAAGGAGCCGCAAAAAAGTTATTAAGGGCTGAATAATCCCTCAATATAAATATCTCTCACTTATTTAAA”, the “cleaved RNA product abundance” value is, setting by setting: under setting [2], 0.478; under setting [1], 0.694.

As for “ACAGACGAAGGAGCCGCAAAAAAGTTATTAAGGGGTGAATAATCCCTCAATATAAATATCTCTCACTTATTTAAA”, the “cleaved RNA product abundance” value was 0.759 under setting [2] and 0.602 under setting [1].

For “ACAGACGAAGGAGCCGCAAAAAAGTTATTAAGGGTTGAATAATCCCTCAATATAAATATCTCTCACTTATTTAAA”, the “cleaved RNA product abundance” value reads like this: under setting [2], 0.373; under setting [1], 0.512.

In the case of “ACAGACGAAGGAGCCGCAAAAAAGTTATTAAGGTATAAATAATCCCTCAATATAAATATCTCTCACTTATTTAAA”, the “cleaved RNA product abundance” value under setting [1] worked out at 0.0805.

Turning to “ACAGACGAAGGAGCCGCAAAAAAGTTATTAAGGTATGAATAATCCATCAATATAAATATCTCTCACTTATTTAAA”, the “cleaved RNA product abundance” value under setting [1] worked out at 0.23.

Turning to “ACAGACGAAGGAGCCGCAAAAAAGTTATTAAGGTATGAATAATCCCTCAATATAAATATCTCTCACTTATTTAAA”, the “cleaved RNA product abundance” value stood at 0.121 under setting [2] and 0.17 under setting [1].

Take “ACAGACGAAGGAGCCGCAAAAAAGTTATTAAGTGATGAATAATCCCTCAATATAAATATCTCTCACTTATTTAAA”: the “cleaved RNA product abundance” value runs as follows: under setting [2], 0.119; under setting [1], 0.0972.

On to “ACAGACGAAGGAGCCGCAAAAAAGTTATTAATGGATGAATAATCCCTCAATATAAATATCTCTCACTTATTTAAA”, for which the “cleaved RNA product abundance” value runs as follows: under setting [2], 0.0715; under setting [1], 0.149.

Consider “ACAGACGAAGGAGCCGCAAAAAAGTTATTAATGGCTGAATAATCCCTCAATATAAATATCTCTCACTTATTTAAA”, for which the “cleaved RNA product abundance” value under setting [1] came to 0.0935.

“ACAGACGAAGGAGCCGCAAAAAAGTTATTACGGGATGAATAATCCCTCAATATAAATATCTCTCACTTATTTAAA”: the “cleaved RNA product abundance” value worked out at 0.329 under setting [2] and 0.364 under setting [1].

With “ACAGACGAAGGAGCCGCAAAAAAGTTATTAGGGGATGAATAATCCCTCAATATAAATATCTCTCACTTATTTAAA”, the “cleaved RNA product abundance” value under setting [1] is 0.608.

Consider “ACAGACGAAGGAGCCGCAAAAAAGTTATTATGGGATGAATAATCCCTCAATATAAATATCTCTCACTTATTTAAA”, for which the “cleaved RNA product abundance” value reads like this: under setting [2], 0.323; under setting [1], 0.334.
